# In patent US8263074B2, “Fibroblast growth factor receptor-1 inhibitors and methods of treatment thereof” (ImClone LLC, priority 2003, dated 2012):
# B1: FR1-H7: human monoclonal antibody from phage Fab library, specific for FGFR-1(IIIb) and/or FGFR-1(IIIc), and/or FGFR-4(IIIc); VH/VL SEQ ID NOS:7, 8 (antibody, listed as Homo sapiens)
# VH: MAEVQLVQSGAEVKKPGASVKVSCKVSGYTFTDYYMHWVQQAPGKGLEWMGLVDPEDGETIYAEKFQGRVTITADTSTDTAYMELSSLRSEDTAVYYCARDDYMDVWGKGTLVTVSSASTKGP
# VL: LETTLTQSPDTLSLSPGEGATLSCRASQSVSGSALAWYQQKPGQAPRLLIYDASSRATGVPDRFSGSGSGADFSLTISRLEPEDFAVYSCQQYGSSPLTFGPGTKVDVKRTVAAPSVFIFPPSDEQLKSGTASVVCLLNNFYPREAKVQWKVD
# Columns and labels:
# [1] = test system: Human umbilical vascular endothelial cells (HUVECs); test: HUVEC proliferation assay (3H-thymidine); type: cell-based; conditions: 3H-thymidine incorporation
# Method: Human umbilical vascular endothelial cells (HUVECs) were seeded in 96-well tissue culture plates at a concentration of 5×10^4 cells/ml. After attachment, cells were quiesced in EMG-2 medium lacking EGF, VEGF and FGF-2 (Cambrex, East Rutherford, N.J.) for 24 hrs. Quiescent media in wells were aspirated and replaced with EMG-2 that contained all the growth factors mentioned above. Antibodies were serially diluted and added to the wells. Cells were incubated at 37° C. with 5% CO2 in a Muaire™ DH autoflow incubator (Cryostar Industries, Inc., White Hall, Pa.) for 48-72 hrs. Cell growth was determined by monitoring ^3H-thymidine incorporation using a 1450 Micorbeta liquid scintillation counter (Perkin Elmer, Gaithersburg, Md.).
# [2] = Single-dose short-term study in female athymic nude mice: body and tissue weights, serum chemistry; type: in vivo
# Method: Short-term effects of the FR1-H7 antibody on serum levels of insulin, leptin, glucose, and triglycerides were examined by injecting 4 mg/kg antibody or control vehicle into female athymic nude mice. Samples were collected and evaluated before treatment and 6, 24, and 48 hours after treatment. Alanine aminotransferase (ALT), […], blood urea nitrogen (BUN), total serum proteins, and serum albumin levels were measured using serum samples taken 48 hours after treatment. The mice were sacrificed and weights of their left parametrial fat pad, left tibialis anterior muscle, left posterior liver lobe, and spleen were also taken.
# [3] = Repeated-dose study in female athymic nude mice: body weight, food intake, rearing, blood glucose; type: in vivo; conditions: day 64
molecule,measurement,setting,value
B1,proliferation of HUVECs in vitro,[1],inhibited the proliferation of HUVECs in vitro in a dose-dependant manner
same,serum insulin level,[2]; single 4 mg/kg,significantly reduced
same,serum leptin level,[2]; single 4 mg/kg,significantly reduced
same,serum triglycerides level,[2]; single 4 mg/kg,significantly reduced
same,reduction of averaged body weight compared to control groups,"[2]; single 4 mg/kg s.c., 48 hours",approximately 6%
same,weight reduction of parametrial fat pad,"[2]; single 4 mg/kg s.c., 48 hours",approximately 60%
same,"weights of muscle, liver, and spleen","[2]; single 4 mg/kg s.c., 48 hours",appear to be normal
same,"levels of ALT, CPK, BUN, total serum proteins, and serum albumin versus control","[2]; single 4 mg/kg, 48 hours",no significant differences
same,serum glucose level,"[2]; single 4 mg/kg, 48 hours after treatment",did not affect
same,non-fasted blood glucose after weight recovery,[3],restored to normal range
